Patent US6982249B1, “Bradykinin analogs as selective inhibitors of cell activation” (The Regents of the University of Michigan, priority 1997, dated 2006)
“Also recorded” adds a separate entry of the source.

Legend:
[1] = tested on: fibroblasts (thrombin receptor, PAR 1); assay: α-thrombin-induced calcium mobilization in fibroblasts; assay type: cell-based
Method: (§1) A variation of the calcium mobilization assay uses fibroblasts (which express a single receptor for thrombin, PAR 1), umbilical vein endothelial cells, or other cells which express the cloned thrombin receptor, and which grow in monolayers on the bottom of plastic wells.
(§2) Fibroblasts or endothelial cells were grown in 24-96 well plates and loaded with the fluorescent Ca^2+ indicator fura-2 acetyloxymethylester (5 μM, Molecular Probes Inc.) by incubation for 60 min. in HEPES-Tyrode's buffer at 37° C. After washing the cells, the fluorescence of the cells was monitored on a thermostatically controlled heated pad at 37° C. for 1 min, then the cells were incubated with α-thrombin (1 to 5 nM) in the absence or presence of a BK analog. Fluorescence was detected by a Perkin-Elmer LS-50B Luminescence Spectrofluorometer. Excitation was measured at 340 and 380 nm wavelength and emission was assessed at 510 nm. The cytosolic Ca^2+ levels were determined as described above. The Rmax value was determined using 10 mM Ca^2+ in the presence of 20 μM Ionophor A23187; Rmin was determined in the presence of 20 mM EDTA.
(§3) The ability of BK analogs to inhibit α-thrombin-induced calcium mobilization in fibroblasts and human umbilical vein endothelial cells (HUVEC) was assayed as described in Example 1C.

[2] = tested on: human umbilical vein endothelial cells (HUVEC); assay: α-thrombin-induced calcium mobilization in HUVEC; assay type: cell-based
Method: as §1, §2, §3

[3] = tested on: α-thrombin binding to platelets; assay: 125I-α-thrombin binding to platelets; settings: HK, LK, domain 3: molar excess

B1: HK: human high molecular weight kininogen (protein, UniProt P01042 19-644, looked up)
Kininogen-1: QESQSEEIDCNDKDLFKAVDAALKKYNSQNQSNNQFVLYRITEATKTVGSDTFYSFKYEIKEGDCPVQSGKTWQDCEYKDAAKAATGECTATVGKRSSTKFSVATQTCQITPAEGPVVTAQYDCLGCVHPISTQSPDLEPILRHGIQYFNNNTQHSSLFMLNEVKRAQRQVVAGLNFRITYSIVQTNCSKENFLFLTPDCKSLWNGDTGECTDNAYIDIQLRIASFSQNCDIYPGKDFVQPPTKICVGCPRDIPTNSPELEETLTHTITKLNAENNATFYFKIDNVKKARVQVVAGKKYFIDFVARETTCSKESNEELTESCETKKLGQSLDCNAEVYVVPWEKKIYPTVNCQPLGMISLMKRPPGFSPFRSSRIGEIKEETTVSPPHTSMAPAQDEERDSGKEQGHTRRHDWGHEKQRKHNLGHGHKHERDQGHGHQRGHGLGHGHEQQHGLGHGHKFKLDDDLEHQGGHVLDHGHKHKHGHGHGKHKNKGKKNGKHNGWKTEHLASSSEDSTTPSAQTQEKTEGPTPIPSLAKPGVTVTFSDFQDSDLIATMMPPISPAPIQSDDDWIPDIQIDPNGLSFNPISDFPDTTSPKCPGRPWKSVSEINPTTQMKESYYFDLTDGLS
modifications: high molecular weight kininogen
[1]
  inhibition of α-thrombin-induced calcium mobilization in fibroblasts (FIG. 5): inhibited calcium mobilization; also recorded: inhibition
[2]
  inhibition of α-thrombin-induced calcium mobilization in endothelial cells (FIG. 6): inhibited calcium mobilization; also recorded: inhibition
[3]
  inhibition of 125-α-thrombin binding to platelets: inhibit
